Source: US20190290686A1

Biological target: T cell receptor of CD8+ T cells from OT1 transgenic mice (ova-specific T cells)
Experiment: cell-based or functional assay

- expansion of OT1 cells in vivo after a second aAPC dose (FIG. 6): > 200 fold
Substance: H-2Kb SIINFEKL-DBCO-Thiolinker monomer clicked onto azido-labeled murine erythroid cells (from UniProt P01901 22-305) (peptide-MHC)
